Blank lines part the entries; values can stand above or below the molecule they belong to.
Columns and labels:
[1] = molecular target: APLDQ GPIIIa (murine integrin β3 humanized to carry the HPA-1a epitope, in GPIIb-IIIa) on APLDQ mouse platelets (mouse) (UniProt O54890); test: flow cytometry saturation-binding curves on APLDQ platelets
[2] = molecular target: T1, HPA-1a (Leu33 form of human GPIIIa / integrin β3, in GPIIb-IIIa) on HPA-1a/a human platelets (human, UniProt P05106 27-788; P08514 32-1039); test: flow cytometry on washed human platelets, FITC goat anti-human IgG
T1 construct: whole, on cells; Native antigen on washed platelets from HPA-1a/a individuals; also called HPA-1a alloantigen; HPA-1a expressed on GPIIIa

[3] = molecular target: APLDQ GPIIIa (murine integrin β3 humanized to carry the HPA-1a epitope, in GPIIb-IIIa) on APLDQ mouse platelets (mouse) (UniProt O54890); test: flow cytometry saturation-binding curve on APLDQ homozygous platelets

Sequence of APLDQ GPIIIa (murine integrin β3 humanized to carry the HPA-1a epitope, in GPIIb-IIIa) on APLDQ mouse platelets (mouse) (O54890 26-787, chain 1 of 2): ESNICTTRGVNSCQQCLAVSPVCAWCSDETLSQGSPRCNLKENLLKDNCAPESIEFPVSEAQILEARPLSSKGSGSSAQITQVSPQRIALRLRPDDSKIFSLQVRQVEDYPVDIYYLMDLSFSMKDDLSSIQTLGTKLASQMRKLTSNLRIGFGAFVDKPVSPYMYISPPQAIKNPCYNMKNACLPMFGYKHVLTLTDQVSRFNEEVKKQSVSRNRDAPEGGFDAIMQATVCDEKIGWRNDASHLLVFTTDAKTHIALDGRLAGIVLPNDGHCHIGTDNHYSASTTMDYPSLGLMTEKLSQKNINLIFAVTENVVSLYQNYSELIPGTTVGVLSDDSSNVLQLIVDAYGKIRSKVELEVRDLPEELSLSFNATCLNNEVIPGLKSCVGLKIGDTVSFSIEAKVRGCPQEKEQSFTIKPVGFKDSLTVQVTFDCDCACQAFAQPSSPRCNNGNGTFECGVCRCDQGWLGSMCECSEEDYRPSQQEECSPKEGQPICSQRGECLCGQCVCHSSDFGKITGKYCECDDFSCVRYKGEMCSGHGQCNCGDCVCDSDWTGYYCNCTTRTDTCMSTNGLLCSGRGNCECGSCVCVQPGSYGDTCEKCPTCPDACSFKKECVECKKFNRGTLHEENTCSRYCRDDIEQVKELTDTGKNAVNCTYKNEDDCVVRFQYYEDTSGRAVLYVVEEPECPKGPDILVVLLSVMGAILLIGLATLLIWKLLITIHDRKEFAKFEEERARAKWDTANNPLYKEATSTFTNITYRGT
Sequence of APLDQ GPIIIa (murine integrin β3 humanized to carry the HPA-1a epitope, in GPIIb-IIIa) on APLDQ mouse platelets (mouse) (Q9QUM0 32-1033, chain 2 of 2, further chain): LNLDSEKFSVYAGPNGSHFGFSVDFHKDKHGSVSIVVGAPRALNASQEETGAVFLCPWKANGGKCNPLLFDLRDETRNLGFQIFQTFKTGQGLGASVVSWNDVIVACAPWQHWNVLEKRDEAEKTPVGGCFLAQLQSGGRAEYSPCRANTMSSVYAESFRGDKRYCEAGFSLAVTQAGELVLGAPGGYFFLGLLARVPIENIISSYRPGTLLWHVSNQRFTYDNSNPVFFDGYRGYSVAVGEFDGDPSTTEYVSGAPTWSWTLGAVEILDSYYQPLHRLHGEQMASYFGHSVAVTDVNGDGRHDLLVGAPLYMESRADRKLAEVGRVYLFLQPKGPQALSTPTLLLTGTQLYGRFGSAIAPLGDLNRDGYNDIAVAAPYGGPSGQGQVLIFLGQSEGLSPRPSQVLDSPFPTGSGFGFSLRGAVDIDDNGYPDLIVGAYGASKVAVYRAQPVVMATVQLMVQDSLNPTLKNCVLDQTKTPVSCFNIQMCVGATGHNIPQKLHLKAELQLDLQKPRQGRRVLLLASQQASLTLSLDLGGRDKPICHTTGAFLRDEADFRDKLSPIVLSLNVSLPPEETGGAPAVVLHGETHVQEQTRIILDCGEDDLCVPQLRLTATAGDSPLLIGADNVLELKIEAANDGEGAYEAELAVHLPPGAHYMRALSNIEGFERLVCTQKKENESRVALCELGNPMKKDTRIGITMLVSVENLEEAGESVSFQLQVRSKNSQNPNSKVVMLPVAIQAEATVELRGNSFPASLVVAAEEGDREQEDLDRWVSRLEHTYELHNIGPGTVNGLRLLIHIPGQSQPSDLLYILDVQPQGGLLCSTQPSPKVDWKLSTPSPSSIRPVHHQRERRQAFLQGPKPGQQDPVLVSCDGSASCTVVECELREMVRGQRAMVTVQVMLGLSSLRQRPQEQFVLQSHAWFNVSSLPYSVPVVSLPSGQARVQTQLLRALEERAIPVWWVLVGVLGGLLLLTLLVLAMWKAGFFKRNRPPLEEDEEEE
T1 sequence (P05106 27-788, chain 1 of 2): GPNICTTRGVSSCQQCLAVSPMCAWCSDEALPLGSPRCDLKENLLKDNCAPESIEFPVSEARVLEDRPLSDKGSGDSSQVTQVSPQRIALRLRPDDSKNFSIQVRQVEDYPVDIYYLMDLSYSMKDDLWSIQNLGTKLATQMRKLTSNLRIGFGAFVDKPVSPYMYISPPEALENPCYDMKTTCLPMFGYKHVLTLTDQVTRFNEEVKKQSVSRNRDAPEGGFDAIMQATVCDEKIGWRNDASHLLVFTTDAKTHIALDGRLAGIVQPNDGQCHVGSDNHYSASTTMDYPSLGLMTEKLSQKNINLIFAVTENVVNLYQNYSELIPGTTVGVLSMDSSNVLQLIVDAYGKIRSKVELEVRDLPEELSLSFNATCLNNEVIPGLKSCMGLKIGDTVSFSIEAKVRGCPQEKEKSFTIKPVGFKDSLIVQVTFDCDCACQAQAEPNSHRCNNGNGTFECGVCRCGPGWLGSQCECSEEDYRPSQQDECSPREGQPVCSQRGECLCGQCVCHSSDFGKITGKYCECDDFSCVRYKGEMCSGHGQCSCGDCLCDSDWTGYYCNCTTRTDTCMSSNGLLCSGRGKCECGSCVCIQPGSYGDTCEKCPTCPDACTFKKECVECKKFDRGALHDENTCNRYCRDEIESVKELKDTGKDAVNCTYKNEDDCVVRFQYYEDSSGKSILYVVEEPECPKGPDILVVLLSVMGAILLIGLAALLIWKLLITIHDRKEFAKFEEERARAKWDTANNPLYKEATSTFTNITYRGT
T1 sequence (P08514 32-1039, chain 2 of 2): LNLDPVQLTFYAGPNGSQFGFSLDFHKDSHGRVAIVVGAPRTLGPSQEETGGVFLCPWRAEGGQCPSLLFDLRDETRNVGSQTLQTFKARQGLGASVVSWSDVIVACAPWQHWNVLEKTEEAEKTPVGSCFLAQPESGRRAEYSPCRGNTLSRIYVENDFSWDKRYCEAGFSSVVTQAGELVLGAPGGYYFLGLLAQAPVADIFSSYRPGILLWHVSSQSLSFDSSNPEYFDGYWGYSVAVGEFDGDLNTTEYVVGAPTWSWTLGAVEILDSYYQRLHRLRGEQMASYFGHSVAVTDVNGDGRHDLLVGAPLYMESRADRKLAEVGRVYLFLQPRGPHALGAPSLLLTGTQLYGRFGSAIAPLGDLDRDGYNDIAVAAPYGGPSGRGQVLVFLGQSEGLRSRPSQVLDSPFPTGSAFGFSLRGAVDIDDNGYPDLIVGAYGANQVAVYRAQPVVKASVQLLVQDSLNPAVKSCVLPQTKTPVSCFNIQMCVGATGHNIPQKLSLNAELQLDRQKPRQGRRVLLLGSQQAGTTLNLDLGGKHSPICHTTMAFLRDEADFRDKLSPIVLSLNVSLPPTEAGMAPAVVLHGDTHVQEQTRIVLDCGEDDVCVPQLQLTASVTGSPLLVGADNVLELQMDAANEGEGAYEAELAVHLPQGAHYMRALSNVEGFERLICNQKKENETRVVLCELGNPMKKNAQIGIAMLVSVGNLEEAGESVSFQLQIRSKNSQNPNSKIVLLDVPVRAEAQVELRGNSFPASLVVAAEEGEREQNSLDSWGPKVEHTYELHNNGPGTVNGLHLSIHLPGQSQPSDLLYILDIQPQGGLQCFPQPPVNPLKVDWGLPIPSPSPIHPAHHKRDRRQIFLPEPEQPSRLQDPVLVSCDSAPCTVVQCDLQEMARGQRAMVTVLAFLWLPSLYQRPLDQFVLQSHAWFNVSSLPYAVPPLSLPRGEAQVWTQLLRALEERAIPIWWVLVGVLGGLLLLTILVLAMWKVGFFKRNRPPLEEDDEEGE

- occupancy of available GPIIb-IIIa receptors at ~4 IU/mL [1]: < 10%
Molecule: RLYB211 (antibody)

- binding result [2]: binds
- concentration that fully saturates GPIIb-IIIa receptors [3]: > 100 IU/ml
- occupancy of available GPIIb-IIIa receptors at ~4 IU/mL [1]: < 10%
B1: RLYB212 (antibody, human IgG1, kappa, V domains shown)
VH: QVQLQQSGPGLVKPSQTLSLTCAISGDSVSSNSAAWNWIRQSPSRGLEWLGRTYFRSNWYNDYAASVKSRITINQDTSKNQLSLQLNSVTPEDTAVYYCARDGAWGGSSWWPGLPHHYYSGMDVWGQGTTVTVSS
VL: EIVLTQSPATLSLSPGERATLSCRASQSVSSYLAWYQQKPGQAPRLLIYDASKRATGIPARFSGSGSGTDFSLTIRSLEPEDFAVYYCQQRSDWQGLTFGGGTKVEIKR
notes: also called monoclonal RLYB212; monospecific monoclonal antibody RLYB212

Source: patent US20240141067A1 (RALLYBIO IPA, published 2024)
